Source: publication PMC3035177 (Chemistry & biology, 2005)

Molecular target: T1, DnaG primase (purified) (B. stearothermophilus, UniProt Q9X4D0 1-597)
T1 sequence (looked up): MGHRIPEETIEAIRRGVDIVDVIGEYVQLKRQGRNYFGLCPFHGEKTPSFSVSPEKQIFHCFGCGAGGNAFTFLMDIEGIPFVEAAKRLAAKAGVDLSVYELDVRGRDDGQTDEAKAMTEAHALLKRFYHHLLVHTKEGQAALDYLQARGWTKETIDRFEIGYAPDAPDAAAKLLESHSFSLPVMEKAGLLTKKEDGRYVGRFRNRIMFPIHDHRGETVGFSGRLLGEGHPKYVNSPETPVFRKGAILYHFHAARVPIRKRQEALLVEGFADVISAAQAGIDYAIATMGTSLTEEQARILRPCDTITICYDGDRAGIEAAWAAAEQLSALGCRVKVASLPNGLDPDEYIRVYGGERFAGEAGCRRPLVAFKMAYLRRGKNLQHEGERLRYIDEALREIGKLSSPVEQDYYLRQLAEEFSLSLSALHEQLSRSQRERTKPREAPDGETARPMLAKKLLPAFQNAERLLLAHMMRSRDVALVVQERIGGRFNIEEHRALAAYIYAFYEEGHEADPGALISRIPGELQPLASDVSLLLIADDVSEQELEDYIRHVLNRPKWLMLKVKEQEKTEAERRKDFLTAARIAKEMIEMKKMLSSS
Assay: SEC

binding result: binds
B1: DnaB helicase (purified) (enzyme, B. stearothermophilus, UniProt Q9X4C9 1-454, looked up)
chain: MSELFSERIPPQSIEAEQAVLGAVFLDPAALVPASEILIPEDFYRAAHQKIFHAMLRVADRGEPVDLVTVTAELAASEQLEEIGGVSYLSELADAVPTAANVEYYARIVEEKSVLRRLIRTATSIAQDGYTREDEIDVLLDEADRKIMEVSQRKHSGAFKNIKDILVQTYDNIEMLHNRDGEITGIPTGFTELDRMTSGFQRSDLIIVAARPSVGKTAFALNIAQNVATKTNENVAIFSLEMSAQQLVMRMLCAEGNINAQNLRTGKLTPEDWGKLTMAMGSLSNAGIYIDDTPSIRVSDIRAKCRRLKQESGLGMIVIDYLQLIQGSGRSKENRQQEVSEISRSLKALARELEVPVIALSQLSRSVEQRQDKRPMMSDIRESGSIEQDADIVAFLYRDDYYNKDSENKNIIEIIIAKQRNGPVGTVQLAFIKEYNKFVNLERRFDEAQIPPGA
